Test results taken from patent US7122624 (dated 2006).
Values belong to the binder of their own block, whether it stands above or below them. No end group written: not given here.

Columns and labels:
glucagon receptor = glucagon receptor (human, UniProt P47871); test: competition, COS-7 cells, up to 1 uM
PTH2 receptor = biological target: T1, PTH2 receptor (human); test: competition, [125I]TIP39, 10 uM GTPgS, HEK293 membranes
T1 chain: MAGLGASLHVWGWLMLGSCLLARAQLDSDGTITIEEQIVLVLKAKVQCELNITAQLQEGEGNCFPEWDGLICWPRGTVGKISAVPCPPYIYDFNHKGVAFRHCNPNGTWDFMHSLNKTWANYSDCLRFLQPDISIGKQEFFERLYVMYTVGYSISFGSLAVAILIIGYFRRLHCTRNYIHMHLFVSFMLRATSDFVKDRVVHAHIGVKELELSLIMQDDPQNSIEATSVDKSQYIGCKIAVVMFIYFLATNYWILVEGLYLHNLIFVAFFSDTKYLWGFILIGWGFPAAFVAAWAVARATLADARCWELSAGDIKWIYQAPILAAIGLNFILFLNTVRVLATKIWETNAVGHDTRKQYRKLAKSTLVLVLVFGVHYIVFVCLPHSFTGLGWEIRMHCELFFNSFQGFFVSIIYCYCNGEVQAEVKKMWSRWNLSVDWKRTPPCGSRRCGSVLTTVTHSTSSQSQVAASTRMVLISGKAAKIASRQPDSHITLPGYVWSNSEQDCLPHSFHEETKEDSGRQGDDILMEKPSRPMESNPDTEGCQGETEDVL

PTH1 receptor [1] = biological target: T2, PTH1 receptor (human, UniProt Q03431); test: competition, [125I]rPTH(1-34), 10 uM GTPgS, HEK293 membranes
T2 chain: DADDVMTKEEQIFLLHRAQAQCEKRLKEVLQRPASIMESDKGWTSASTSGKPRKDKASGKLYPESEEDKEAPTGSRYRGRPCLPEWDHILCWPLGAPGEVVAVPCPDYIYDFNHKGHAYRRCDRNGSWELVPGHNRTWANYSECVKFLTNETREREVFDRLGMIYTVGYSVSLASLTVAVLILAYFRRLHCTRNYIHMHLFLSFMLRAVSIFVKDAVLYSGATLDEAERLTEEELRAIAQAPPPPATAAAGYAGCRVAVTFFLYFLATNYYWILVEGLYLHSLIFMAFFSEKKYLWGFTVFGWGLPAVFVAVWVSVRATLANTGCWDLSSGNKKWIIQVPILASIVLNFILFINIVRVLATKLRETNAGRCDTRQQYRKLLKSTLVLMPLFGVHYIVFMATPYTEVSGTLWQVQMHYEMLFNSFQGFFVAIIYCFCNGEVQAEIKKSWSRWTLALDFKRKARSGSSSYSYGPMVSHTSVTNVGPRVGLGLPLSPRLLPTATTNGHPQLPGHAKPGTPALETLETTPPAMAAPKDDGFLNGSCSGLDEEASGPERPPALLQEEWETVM

PTH1 receptor [2] = biological target: T2, PTH1 receptor; test: other, radioligand kinetics, HEK293 membranes, 21C
PTH1 receptor [3] = biological target: T2, PTH1 receptor; test: other, radioligand saturation, HEK293 membranes, 21C

Chain of glucagon receptor (P47871 26-477): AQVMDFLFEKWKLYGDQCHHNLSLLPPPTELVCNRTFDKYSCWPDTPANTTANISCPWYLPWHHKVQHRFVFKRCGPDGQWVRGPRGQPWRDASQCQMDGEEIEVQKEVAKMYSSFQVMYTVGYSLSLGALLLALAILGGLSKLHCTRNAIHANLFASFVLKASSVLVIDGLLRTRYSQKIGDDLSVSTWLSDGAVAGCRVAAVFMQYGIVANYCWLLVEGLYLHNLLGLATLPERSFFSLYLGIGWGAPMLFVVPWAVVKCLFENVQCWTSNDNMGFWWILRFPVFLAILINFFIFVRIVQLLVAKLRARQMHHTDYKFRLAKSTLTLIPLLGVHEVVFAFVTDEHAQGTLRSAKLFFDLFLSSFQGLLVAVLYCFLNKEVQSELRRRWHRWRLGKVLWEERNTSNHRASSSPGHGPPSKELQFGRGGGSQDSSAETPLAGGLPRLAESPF

binding result (glucagon receptor): no binding
Binder: SLALADDAAFRERARLLAALERRHWLNSYMHKLLVLDAP [TIP39]

IC50 (PTH2 receptor): 98 nM
IC50 (PTH1 receptor [1]): 5 nM
Binder: DAAFRERARLLAALERRHWLNSYMHKLLVLDAP [TIP(7-39)]

Kd (PTH1 receptor [2]): 0.57 nM
Kd (PTH1 receptor [3]): 1.3 nM
Binder: DAAFRERARLLAALERRHWLNSYMHKLLVLDAP (also: 125I label, site not given here) [[125I]TIP(7-39)]
